Results reported in doi:10.1101/2025.05.06.652354.

Columns and labels:
[1] = biological target: Clostridioides difficile transferase B component, CDTb(45-876), activated with trypsin (Clostridioides difficile) (UniProt O32739); experiment: SDS-PAGE of SDS-resistant oligomers
[2] = biological target: Clostridioides difficile transferase B component, CDTb(45-876), activated with trypsin (Clostridioides difficile) (UniProt O32739); experiment: SEC

Q: What does the source list for “Clostridioides difficile transferase B component, CDTb(45-876), activated with trypsin (from UniProt O32739 45-876) (natural protein)”?
A: fold oligomer formed with 2.5 M ethanol against water [1]: 7.5 fold; stoichiometry N [2]: 7
